The source of these data is FireProtDB (doi:10.1021/bi011146t).

The conditions of this series: Alicyclobacillus acidocaldarius subsp. acidocaldarius, pH 7.5, 20 °C, CD, sodium phosphate 20 mM, reversible: no.

Regarding wild type (from UniProt Q7SIG1), for the setting “GdnHCl”, the denaturant m value stood at 2.08 kcal/mol/M, the “denaturant midpoint (higher = more stable)” value was determined as 1.9 M and the unfolding free energy was 4.3 kcal/mol. For the setting “Urea”, the denaturant m value turned out to be 2.63 kcal/mol/M, the “denaturant midpoint (higher = more stable)” value came out at 5.9 M and the unfolding free energy worked out at 15.1 kcal/mol.
